What was measured:
[1] = target: T1, HGF (hepatocyte growth factor/scatter factor) (UniProt P14210;P14210 P14210:32-494,P14210:495-728); assay: filter; one or two 5' G; details: tags: R&D Systems
Protocol: (§1) In binding reactions, RNA concentrations were kept as low as possible—between 1 and 20 pM—to ensure equilibrium in conditions of protein excess. Oligonucleotides were incubated for 15 minutes at 37° C. with varying amounts of the protein in 43 µl of the binding buffer. Thirty-two microliters of each binding mixture placed on pre-wet 0.45 µm nitrocellulose filters under suction. Each well was immediately washed with 0.5 ml binding buffer. The amount of radioactivity retained on the filters was quantitated by imaging. The radioactivity that bound to filters in the absence of protein was used for background correction. The percentage of input oligonucleotide retained on each filter spot was plotted against the corresponding log protein concentration. The nonlinear least square method was used to obtain the dissociation constant (K_d; reference Jellinek, Lynott et al. 1993, Proc. Natl. Acad. Sci. USA. 90:11227–31).

[2] = target: T1, HGF (hepatocyte growth factor/scatter …); assay: filter; no significant binding retained; details: tags: R&D Systems
Protocol: as §1

[3] = target: T1, HGF (hepatocyte growth factor/scatter …); assay: filter; HBSMC, 37C; SEQ 108 in listing duplicates SEQ 107, table sequence used; details: tags: R&D Systems
Protocol: as §1

[4] = target: T1, HGF (hepatocyte growth factor/scatter …); assay: filter; 40N8 hitchhiker; details: tags: R&D Systems
Protocol: as §1

[5] = target: T1, HGF (hepatocyte growth factor/scatter …); assay: filter; one or two 5' G; no inhibition of HGF in cells without PEG; details: tags: R&D Systems
Protocol: as §1

[6] = target: c-met extracellular domain-IgG1-His6 (Homo sapiens, UniProt P08581 P08581:25-932); assay: filter; biphasic; lower affinity Kd ~5 nM; details: chain copies: 2
[7] = target: T1, HGF (hepatocyte growth factor/scatter …); assay: filter; 36mer; PEGylated form inhibits HGF in cells; details: tags: R&D Systems
Protocol: as §1

[8] = target: T1, HGF (hepatocyte growth factor/scatter …); assay: filter; HBSMC, 37C; SEQ 43 in listing has a deviating 3' end; details: tags: R&D Systems
Protocol: as §1

[9] = target: T1, HGF (hepatocyte growth factor/scatter …); assay: filter; HBSMC, 37C; table cites SEQ 15, which is a template in the listing; details: tags: R&D Systems
Protocol: as §1

[10] = target: T1, HGF (hepatocyte growth factor/scatter …); assay: filter; HBSMC, 37C; worse than random pool; details: tags: R&D Systems
Protocol: as §1

T1 sequence (P14210 32-494, chain 1 of 2): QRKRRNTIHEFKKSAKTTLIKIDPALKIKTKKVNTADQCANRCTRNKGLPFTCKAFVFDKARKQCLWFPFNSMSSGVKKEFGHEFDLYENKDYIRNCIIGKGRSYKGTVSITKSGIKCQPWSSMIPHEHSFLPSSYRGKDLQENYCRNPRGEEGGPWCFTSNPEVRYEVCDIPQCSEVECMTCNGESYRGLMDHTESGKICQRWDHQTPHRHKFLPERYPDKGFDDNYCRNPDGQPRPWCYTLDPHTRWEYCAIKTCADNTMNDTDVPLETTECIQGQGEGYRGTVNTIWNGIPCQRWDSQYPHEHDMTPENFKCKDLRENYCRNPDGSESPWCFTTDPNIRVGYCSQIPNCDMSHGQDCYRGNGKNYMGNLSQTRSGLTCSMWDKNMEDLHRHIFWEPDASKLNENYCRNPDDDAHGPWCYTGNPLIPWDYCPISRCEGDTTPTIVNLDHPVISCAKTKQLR
T1 sequence (P14210 495-728, chain 2 of 2): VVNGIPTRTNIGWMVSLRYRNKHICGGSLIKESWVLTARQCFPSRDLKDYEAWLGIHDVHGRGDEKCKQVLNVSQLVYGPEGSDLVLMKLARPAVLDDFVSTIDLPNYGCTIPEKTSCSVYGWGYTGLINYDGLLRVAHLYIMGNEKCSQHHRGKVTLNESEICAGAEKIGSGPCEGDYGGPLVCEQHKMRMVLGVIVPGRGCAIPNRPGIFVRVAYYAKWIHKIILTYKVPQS
Chain of c-met extracellular domain-IgG1-His6 (P08581 25-932, one chain of several): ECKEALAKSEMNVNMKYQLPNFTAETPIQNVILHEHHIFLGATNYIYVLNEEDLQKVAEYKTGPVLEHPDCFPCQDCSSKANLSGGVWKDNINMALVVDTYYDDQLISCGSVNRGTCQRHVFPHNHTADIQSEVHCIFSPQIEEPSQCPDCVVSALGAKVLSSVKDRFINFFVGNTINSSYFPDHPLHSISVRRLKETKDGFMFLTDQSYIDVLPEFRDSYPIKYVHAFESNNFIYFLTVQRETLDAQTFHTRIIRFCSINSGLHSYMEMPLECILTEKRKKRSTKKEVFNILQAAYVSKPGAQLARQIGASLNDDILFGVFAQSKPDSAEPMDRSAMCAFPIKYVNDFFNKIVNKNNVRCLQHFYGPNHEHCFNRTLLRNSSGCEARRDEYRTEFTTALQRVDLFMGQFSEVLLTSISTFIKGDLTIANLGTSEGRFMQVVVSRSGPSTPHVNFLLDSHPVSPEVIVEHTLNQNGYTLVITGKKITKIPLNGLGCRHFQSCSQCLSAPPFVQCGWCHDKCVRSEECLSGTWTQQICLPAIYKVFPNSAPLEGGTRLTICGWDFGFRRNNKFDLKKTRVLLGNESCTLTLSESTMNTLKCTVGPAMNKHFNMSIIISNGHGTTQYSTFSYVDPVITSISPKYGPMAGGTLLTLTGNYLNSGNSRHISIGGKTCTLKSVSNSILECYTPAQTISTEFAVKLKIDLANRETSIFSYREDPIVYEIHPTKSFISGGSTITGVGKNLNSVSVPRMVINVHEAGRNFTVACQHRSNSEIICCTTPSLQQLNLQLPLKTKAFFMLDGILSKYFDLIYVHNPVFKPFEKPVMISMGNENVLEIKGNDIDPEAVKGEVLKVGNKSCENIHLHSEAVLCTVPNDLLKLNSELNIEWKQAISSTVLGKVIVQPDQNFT

B1: Tr7 (ssRNA)
RNA: GGCGGUGUGAACCUGUUUAUGUCCGCGUACCCCA
modifications: 2'-F pyrimidines
- Kd [1]: 0.67 nM

B2: 8-17 28mer (ssRNA)
RNA: GGACGAUGCGGGCGGCUCGAUGUCGUCU
modifications: 2'-F pyrimidines
- binding result [2]: no binding

B3: 10-17 (ssRNA)
RNA: GGGAGAUAAGAAUAAACGCUCAAAACCCUGUUGGCGUGACGUCCCGACCCUCCUUCGACAGGAGGCUCACAACAGGC
modifications: 2'-F pyrimidines
- Kd [3]: 0.56 nM

B4: 10-35 (ssRNA)
RNA: GGGAGAUAAGAAUAAACGCUCAAAUCCAAAUUCUGGUCAUGAGGCGCUGCAGAUACUGCUGCGUUCGACAGGAGGCUCACAACAGGC
modifications: 2'-F pyrimidines
- Kd [4]: 2.33 nM

B5: 10-38 (ssRNA)
RNA: GGGAGAUAAGAAUAAACGCUCAAUCUGCGGACGGUGAGGUUAAGUUGCAACGACUGCUUGGCGUUCGACAGGAGGCUCACAACAGGC
modifications: 2'-F pyrimidines
- Kd [4]: 7.38 nM

B6: Tr51 (ssRNA)
RNA: GGAAUCACAGGAAUCAACUUCUAUUCCCGCCCCA
modifications: 2'-F pyrimidines
- Kd [5]: 0.06 nM

B7: Tr5 (ssRNA)
RNA: GGCAGACGACUCGCCCGAAGGACGAUGCGGCA
modifications: 2'-F pyrimidines
- Kd [1]: 28 nM

B8: 10-56 (ssRNA)
RNA: GGGAGAUAAGAAUAAACGCUCAACCUUAGGGCUCCCAAAAAUCGGGCCCGUCGGGCCGAUCACUUCGACAGGAGGCUCACAACAGGC
modifications: 2'-F pyrimidines
- Kd [4]: 0.28 nM

B9: Tr14 (ssRNA)
RNA: GGGAGUUAUAUUUCGUCACCCGUUCCUUUGCCCCA
modifications: 2'-F pyrimidines
- Kd [1]: 2.2 nM

B10: 10-67 (ssRNA)
RNA: GGGAGAUAAGAAUAAACGCUCAAUCGGGCUUGGAUGUGGACGUGUAUUUCUAGCUGUGUACGCUUCGACAGGAGGCUCACAACAGGC
modifications: 2'-F pyrimidines
- Kd [4]: 0.64 nM

B11: 7c-1 (ssRNA)
RNA: GGGAGGACGAUGCGGUUUGACUAUGUCUGACGGGUCUGUGGUCAAUUCCGCCCCCAGACGACUCGCCCGA
modifications: 2'-F pyrimidines
- Kd [6]: ~0.05 nM

B12: Tr59 (ssRNA)
RNA: GGACAGUUUGUCUUCUAUAGCUCGUCGCCCCCA
modifications: 2'-F pyrimidines
- Kd [1]: 7.2 nM

B13: Tr71 (ssRNA)
RNA: GGUCAGAAUGACUUUCAUAGCUCGCUUUCCCCCA
modifications: 2'-F pyrimidines
- Kd [1]: 7.7 nM

B14: Tr70 (ssRNA)
RNA: GGUGGGAACCUAUUUAUGUCAUCGUCUGUGCCCA
modifications: 2'-F pyrimidines
- Kd [1]: 2.4 nM

B15: NX22354 (36mer of 8-102) (ssRNA)
RNA: GGACGAUGCGGCGAGUGCCUGUUUAUGUCAUCGUCC
modifications: 2'-F pyrimidines; NX22354 formulation carries 5'-40K PEG and 3'-dT cap
- Kd [7]: 0.1 nM

B16: Tr45 (ssRNA)
RNA: GGUGGGAACCUAUUUAUGUCAUCUCCGUCCCCA
modifications: 2'-F pyrimidines
- Kd [1]: 1.7 nM

B17: 8-17 38mer (ssRNA)
RNA: GGGAGGACGAUGCGGGCGGCUCGAUGUCGUCUUAUCCC
modifications: 2'-F pyrimidines
- binding result [2]: no binding

B18: 10-68 (ssRNA)
RNA: GGGAGAUAAGAAUAAACGCUCAACGCGGGAUUCUCUGAGGACGAGGCACGUGUGGGUAAUUCGUUCGACAGGAGGCUCACAACAGGC
modifications: 2'-F pyrimidines
- Kd [4]: 1 nM

B19: Tr20 (ssRNA)
RNA: GGUGUGAACCUGUUUAUGCCAUCUCGAGUCCCCA
modifications: 2'-F pyrimidines
- Kd [1]: 3.4 nM

B20: 11-106 (ssRNA)
RNA: GGGAGGACGAUGCGGCGAUGAUGCCUGUUUAUGUCGAUGUCCCCCCAGACGACUCGCCCGA
modifications: 2'-F pyrimidines
- Kd [8]: 0.12 nM

B21: 10-4 (ssRNA)
RNA: GGGAGAUAAGAAUAAACGCUCAAUUGGGUCGGGACUCGAAAGGAUUUGAUAGGAUACAUGAAUUUCGACAGGAGGCUCACAACAGGC
modifications: 2'-F pyrimidines
- Kd [4]: 0.61 nM

B22: 8-117 (ssRNA)
RNA: GGGAGGACGAUGCGGUCCCAAGUUUCAGGGCGUUUCUUCCUCGUCCAGACGACUCGCCCGA
modifications: 2'-F pyrimidines
- Kd [9]: 0.13 nM

B23: Tr6 (ssRNA)
RNA: GGCGUGAGCCUAUUUAUGUCAUCAUGUCUGUGCA
modifications: 2'-F pyrimidines
- Kd [1]: 9 nM

B24: 8-151 (ssRNA)
RNA: GGGAGGACGAUGCGGAGGACUAAUCCCUAAGGAAUAGCUUGCCCGCAGACGACUCGCCCGA
modifications: 2'-F pyrimidines
- Kd [10]: 8 nM

B25: Tr42 (ssRNA)
RNA: GGUGAUAACCUAUUUAUGACGUCGUGGCUCCCCA
modifications: 2'-F pyrimidines
- Kd [1]: 6.1 nM

Reference: patent US6344321, “Nucleic acid ligands which bind to hepatocyte growth factor/scatter factor (HGF/SF) or its receptor c-met” (Gilead Sciences, Inc.)
